Measurements taken from patent publication US20110059555, “BRANCHED AND MULTI-CHAIN NUCLEIC ACID SWITCHES FOR SENSING AND SCREENING” (Syracuse University, published 2011).

How the values were obtained:
[1] = target: NCp7 (nucleocapsid protein, Zn2.NCp7(1-55)) (HIV-1) (UniProt P35962); conditions: Trp assay; virtually identical Kd
[2] = target: NCp7 (nucleocapsid protein, Zn2.NCp7(1-55)) (HIV-1) (UniProt P35962); conditions: virtually no change in Kd
[3] = target: T1, NCp7 (nucleocapsid protein, Zn2.NCp7(1-55)) (HIV-1, UniProt P35962 SEQ:1-55); experiment: Trp assay; K2 similar to that of SL3 RNA; conditions: label: 5'-dabcyl, T-FAM at 17 of the all-DNA strand; tethered duplex with hairpins (O-form favoured)
T1 chain: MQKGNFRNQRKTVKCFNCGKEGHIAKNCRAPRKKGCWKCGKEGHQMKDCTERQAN

[4] = target: T1, NCp7 (nucleocapsid protein, …); experiment: equilibration with NCp7 within a minute at 10 nM switch; conditions: label: 5'-dabcyl, T-FAM at 17 of the all-DNA strand; tethered duplex switch

SL3 16mer
binding signal (fold Kd vs SL3 20mer) [1]: 1

SL3 A315-U322
binding signal (fold Kd vs SL3) [2]: 1

SL3 C315-G
binding signal (fold Kd vs SL3) [2]: 1

SL3 G316-C321
binding signal (fold Kd vs SL3) [2]: 1

B1: M2 tethered switch (mixed)
DNA: GCATGCCTCCGCATGCTCACAGCACGACTCAGATGG
mixed: CCATCTGAGTCGTGCACGCUAGCGGUGGCUAGC
modifications: DNA strand / DNA-RNA chimera (UAGCGGUGGCUAGC is RNA)
binding signal [3]: ~1 fold K2 vs SL3 RNA

B2: M3 tethered switch (mixed)
DNA: GCTATCCACCGATAGCTCACAGCACGACTCAGATGG
mixed: CCATCTGAGTCGTGCACGCUAGCGGUGGCUAGC
modifications: DNA strand / DNA-RNA chimera (UAGCGGUGGCUAGC is RNA)
binding result [4]: binds
